This test concerns the target T1, rat LH receptor (rat, UniProt P16235 27-700).
T1 construct: whole, on cells; also called LH receptors
Briefly: not described.

T1 sequence (P16235 27-700): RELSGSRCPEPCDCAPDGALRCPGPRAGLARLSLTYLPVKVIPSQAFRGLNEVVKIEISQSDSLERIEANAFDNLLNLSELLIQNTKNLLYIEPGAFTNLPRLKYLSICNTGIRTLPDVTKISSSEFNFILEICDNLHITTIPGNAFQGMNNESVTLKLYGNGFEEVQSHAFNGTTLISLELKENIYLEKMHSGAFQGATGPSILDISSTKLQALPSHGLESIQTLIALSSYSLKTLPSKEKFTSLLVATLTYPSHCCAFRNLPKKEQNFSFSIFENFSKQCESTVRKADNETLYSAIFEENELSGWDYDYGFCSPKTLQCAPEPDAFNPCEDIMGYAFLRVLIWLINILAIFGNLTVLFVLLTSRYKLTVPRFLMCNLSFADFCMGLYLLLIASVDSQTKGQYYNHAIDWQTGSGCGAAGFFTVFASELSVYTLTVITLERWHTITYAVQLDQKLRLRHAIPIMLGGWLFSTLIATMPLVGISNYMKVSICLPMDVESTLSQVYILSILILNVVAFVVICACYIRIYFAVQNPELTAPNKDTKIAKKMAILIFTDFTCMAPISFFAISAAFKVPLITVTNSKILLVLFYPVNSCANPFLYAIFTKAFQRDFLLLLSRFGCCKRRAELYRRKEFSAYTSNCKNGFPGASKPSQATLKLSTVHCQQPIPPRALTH

B1: Fos-αδ52 + Jun-hCGβ′ heterodimer (ligand)
alpha: not shown
beta: SCGGRIARLEEKVKTLKAQNSELASTANMLREQVAQLKQKVMGLRPRCRPINATLAVEKEGCPVCITVNTTICAGYCPTMTRVLQGVLPALPQVVCNYRDVRFESIRLPGCPRGVNPVVSYAVALSCQCALCRRSTTDCGGPKDHPLTCDDPRFQDSSSSKAPPPSLPSPSRLPGPSDTPILPQ
modifications: The Cys of the N-terminal SCGG in each chain is meant to form an intersubunit disulfide.
notes: Secreted from co-transfected COS-7 cells; also called Fos-Jun hCGαδ2; copies: 1 + 1
In the case of B1, the binding result is recorded as “binds”.

For the origin of these results see patent US6486303 (UNIVERSITY OF MEDICINE AND DENTISTRY OF NEW JERSEY, dated 2002).
